Assay results from US20210230570.

Biological target: Factor X (FX), P00742
Sequence (P00742 whole entry, looked up): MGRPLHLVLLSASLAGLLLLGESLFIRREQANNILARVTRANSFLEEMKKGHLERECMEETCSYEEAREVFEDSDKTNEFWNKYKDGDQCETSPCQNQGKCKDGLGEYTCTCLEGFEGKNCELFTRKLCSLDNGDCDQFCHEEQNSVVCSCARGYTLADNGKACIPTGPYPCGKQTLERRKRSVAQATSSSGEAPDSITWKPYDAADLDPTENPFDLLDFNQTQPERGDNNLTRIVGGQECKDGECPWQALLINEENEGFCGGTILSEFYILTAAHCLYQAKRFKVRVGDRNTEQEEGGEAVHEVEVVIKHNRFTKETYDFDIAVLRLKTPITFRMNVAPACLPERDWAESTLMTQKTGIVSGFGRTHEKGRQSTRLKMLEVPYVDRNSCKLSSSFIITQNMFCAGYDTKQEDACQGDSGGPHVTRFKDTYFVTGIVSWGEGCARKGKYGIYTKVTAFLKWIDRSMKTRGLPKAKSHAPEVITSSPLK

| Protein | kcat [s⁻¹] | kcat/KM [M⁻¹ s⁻¹] | KM of FX activation by FIXa in the Xase complex (FVIIIa, PC/PS vesicles, Ca2+) [µM] |
| --- | --- | --- | --- |
| FIXa-Y155F/K247N/N249S/R318Y/T343R/E410N (protein) chain 1: YNSGKLEEFVQGNLERECMEEKCSFEEAREVFENTERTTEFWKQYVDGDQCESNPCLNGGSCKDDINSYECWCPFGFEGKNCELDVTCNIKNGRCEQFCKNSADNKVVCSCTEGYRLAENQKSCEPAVPFPCGRVSVSQTSKLTR chain 2: VVGGEDAKPGQFPWQVVLNGKVDAFCGGSIVNEKWIVTAAHCVETGVKITVVAGEHNIEETEHTEQNRSVIRIIPHHNYNAAINKYNHDIALLELDEPLVLNSYVTPICIADKEYTNIFLKFGSGYVSGWGRVFHKGYSALVLQYLRVPLVDRATCLRSTKFRIYNNMFCAGFHEGGRDSCQGDSGGPHVTEVEGTSFLTGIISWGEECAMKGKYGIYTKVSRYVNWIKNKTKLT | 8.1 | 3.1e+08 |  |
| FIXa-R318Y/R338E/T343R (protein) chain 1: YNSGKLEEFVQGNLERECMEEKCSFEEAREVFENTERTTEFWKQYVDGDQCESNPCLNGGSCKDDINSYECWCPFGFEGKNCELDVTCNIKNGRCEQFCKNSADNKVVCSCTEGYRLAENQKSCEPAVPFPCGRVSVSQTSKLTR chain 2: VVGGEDAKPGQFPWQVVLNGKVDAFCGGSIVNEKWIVTAAHCVETGVKITVVAGEHNIEETEHTEQKRNVIRIIPHHNYNAAINKYNHDIALLELDEPLVLNSYVTPICIADKEYTNIFLKFGSGYVSGWGRVFHKGYSALVLQYLRVPLVDRATCLESTKFRIYNNMFCAGFHEGGRDSCQGDSGGPHVTEVEGTSFLTGIISWGEECAMKGKYGIYTKVSRYVNWIKEKTKLT | 4.5 | 1.5e+08 |  |
| FIXa-K247N/N249S/R318Y/T343R/E410N (protein) chain 1: YNSGKLEEFVQGNLERECMEEKCSFEEAREVFENTERTTEFWKQYVDGDQCESNPCLNGGSCKDDINSYECWCPFGFEGKNCELDVTCNIKNGRCEQFCKNSADNKVVCSCTEGYRLAENQKSCEPAVPFPCGRVSVSQTSKLTR chain 2: VVGGEDAKPGQFPWQVVLNGKVDAFCGGSIVNEKWIVTAAHCVETGVKITVVAGEHNIEETEHTEQNRSVIRIIPHHNYNAAINKYNHDIALLELDEPLVLNSYVTPICIADKEYTNIFLKFGSGYVSGWGRVFHKGYSALVLQYLRVPLVDRATCLRSTKFRIYNNMFCAGFHEGGRDSCQGDSGGPHVTEVEGTSFLTGIISWGEECAMKGKYGIYTKVSRYVNWIKNKTKLT | 6.1 | 2e+08 |  |
| FIXa-Y155F/R318Y/T343R/R403E (protein) chain 1: YNSGKLEEFVQGNLERECMEEKCSFEEAREVFENTERTTEFWKQYVDGDQCESNPCLNGGSCKDDINSYECWCPFGFEGKNCELDVTCNIKNGRCEQFCKNSADNKVVCSCTEGYRLAENQKSCEPAVPFPCGRVSVSQTSKLTR chain 2: VVGGEDAKPGQFPWQVVLNGKVDAFCGGSIVNEKWIVTAAHCVETGVKITVVAGEHNIEETEHTEQKRNVIRIIPHHNYNAAINKYNHDIALLELDEPLVLNSYVTPICIADKEYTNIFLKFGSGYVSGWGRVFHKGYSALVLQYLRVPLVDRATCLRSTKFRIYNNMFCAGFHEGGRDSCQGDSGGPHVTEVEGTSFLTGIISWGEECAMKGKYGIYTKVSEYVNWIKEKTKLT | 5 | 7.1e+07 |  |
| FIXa variant Y155F/R338E/R403E/E410N (mature FIX numbering) (protein) chain 1: YNSGKLEEFVQGNLERECMEEKCSFEEAREVFENTERTTEFWKQYVDGDQCESNPCLNGGSCKDDINSYECWCPFGFEGKNCELDVTCNIKNGRCEQFCKNSADNKVVCSCTEGYRLAENQKSCEPAVPFPCGRVSVSQTSKLTR chain 2: VVGGEDAKPGQFPWQVVLNGKVDAFCGGSIVNEKWIVTAAHCVETGVKITVVAGEHNIEETEHTEQKRNVIRIIPHHNYNAAINKYNHDIALLELDEPLVLNSYVTPICIADKEYTNIFLKFGSGYVSGWGRVFHKGRSALVLQYLRVPLVDRATCLESTKFTIYNNMFCAGFHEGGRDSCQGDSGGPHVTEVEGTSFLTGIISWGEECAMKGKYGIYTKVSEYVNWIKNKTKLT |  |  | 0.0336 |
| FIXa-Y155F/R318Y/R338E/T343R (protein) chain 1: YNSGKLEEFVQGNLERECMEEKCSFEEAREVFENTERTTEFWKQYVDGDQCESNPCLNGGSCKDDINSYECWCPFGFEGKNCELDVTCNIKNGRCEQFCKNSADNKVVCSCTEGYRLAENQKSCEPAVPFPCGRVSVSQTSKLTR chain 2: VVGGEDAKPGQFPWQVVLNGKVDAFCGGSIVNEKWIVTAAHCVETGVKITVVAGEHNIEETEHTEQKRNVIRIIPHHNYNAAINKYNHDIALLELDEPLVLNSYVTPICIADKEYTNIFLKFGSGYVSGWGRVFHKGYSALVLQYLRVPLVDRATCLESTKFRIYNNMFCAGFHEGGRDSCQGDSGGPHVTEVEGTSFLTGIISWGEECAMKGKYGIYTKVSRYVNWIKEKTKLT | 7.9 | 3.6e+08 |  |
| FIXa-Y155F/T343R/R403E/E410N (protein) chain 1: YNSGKLEEFVQGNLERECMEEKCSFEEAREVFENTERTTEFWKQYVDGDQCESNPCLNGGSCKDDINSYECWCPFGFEGKNCELDVTCNIKNGRCEQFCKNSADNKVVCSCTEGYRLAENQKSCEPAVPFPCGRVSVSQTSKLTR chain 2: VVGGEDAKPGQFPWQVVLNGKVDAFCGGSIVNEKWIVTAAHCVETGVKITVVAGEHNIEETEHTEQKRNVIRIIPHHNYNAAINKYNHDIALLELDEPLVLNSYVTPICIADKEYTNIFLKFGSGYVSGWGRVFHKGRSALVLQYLRVPLVDRATCLRSTKFRIYNNMFCAGFHEGGRDSCQGDSGGPHVTEVEGTSFLTGIISWGEECAMKGKYGIYTKVSEYVNWIKNKTKLT | 6.6 | 1.5e+08 |  |
| FIXa-Y155F/K247N/N249S/R338E/T343R/E410N (protein) chain 1: YNSGKLEEFVQGNLERECMEEKCSFEEAREVFENTERTTEFWKQYVDGDQCESNPCLNGGSCKDDINSYECWCPFGFEGKNCELDVTCNIKNGRCEQFCKNSADNKVVCSCTEGYRLAENQKSCEPAVPFPCGRVSVSQTSKLTR chain 2: VVGGEDAKPGQFPWQVVLNGKVDAFCGGSIVNEKWIVTAAHCVETGVKITVVAGEHNIEETEHTEQNRSVIRIIPHHNYNAAINKYNHDIALLELDEPLVLNSYVTPICIADKEYTNIFLKFGSGYVSGWGRVFHKGRSALVLQYLRVPLVDRATCLESTKFRIYNNMFCAGFHEGGRDSCQGDSGGPHVTEVEGTSFLTGIISWGEECAMKGKYGIYTKVSRYVNWIKNKTKLT | 4.8 | 1.8e+08 |  |
| FIXa-K247N/N249S/T343R/R403E/E410N (protein) chain 1: YNSGKLEEFVQGNLERECMEEKCSFEEAREVFENTERTTEFWKQYVDGDQCESNPCLNGGSCKDDINSYECWCPFGFEGKNCELDVTCNIKNGRCEQFCKNSADNKVVCSCTEGYRLAENQKSCEPAVPFPCGRVSVSQTSKLTR chain 2: VVGGEDAKPGQFPWQVVLNGKVDAFCGGSIVNEKWIVTAAHCVETGVKITVVAGEHNIEETEHTEQNRSVIRIIPHHNYNAAINKYNHDIALLELDEPLVLNSYVTPICIADKEYTNIFLKFGSGYVSGWGRVFHKGRSALVLQYLRVPLVDRATCLRSTKFRIYNNMFCAGFHEGGRDSCQGDSGGPHVTEVEGTSFLTGIISWGEECAMKGKYGIYTKVSEYVNWIKNKTKLT | 8 | 1.3e+08 |  |
| FIXa-Y155F/K247N/N249S/T343R/R403E/E410N (protein) chain 1: YNSGKLEEFVQGNLERECMEEKCSFEEAREVFENTERTTEFWKQYVDGDQCESNPCLNGGSCKDDINSYECWCPFGFEGKNCELDVTCNIKNGRCEQFCKNSADNKVVCSCTEGYRLAENQKSCEPAVPFPCGRVSVSQTSKLTR chain 2: VVGGEDAKPGQFPWQVVLNGKVDAFCGGSIVNEKWIVTAAHCVETGVKITVVAGEHNIEETEHTEQNRSVIRIIPHHNYNAAINKYNHDIALLELDEPLVLNSYVTPICIADKEYTNIFLKFGSGYVSGWGRVFHKGRSALVLQYLRVPLVDRATCLRSTKFRIYNNMFCAGFHEGGRDSCQGDSGGPHVTEVEGTSFLTGIISWGEECAMKGKYGIYTKVSEYVNWIKNKTKLT | 15 | 2.9e+08 |  |
| FIXa variant R338E/R403E/E410N (mature FIX numbering) (protein) chain 1: YNSGKLEEFVQGNLERECMEEKCSFEEAREVFENTERTTEFWKQYVDGDQCESNPCLNGGSCKDDINSYECWCPFGFEGKNCELDVTCNIKNGRCEQFCKNSADNKVVCSCTEGYRLAENQKSCEPAVPFPCGRVSVSQTSKLTR chain 2: VVGGEDAKPGQFPWQVVLNGKVDAFCGGSIVNEKWIVTAAHCVETGVKITVVAGEHNIEETEHTEQKRNVIRIIPHHNYNAAINKYNHDIALLELDEPLVLNSYVTPICIADKEYTNIFLKFGSGYVSGWGRVFHKGRSALVLQYLRVPLVDRATCLESTKFTIYNNMFCAGFHEGGRDSCQGDSGGPHVTEVEGTSFLTGIISWGEECAMKGKYGIYTKVSEYVNWIKNKTKLT |  |  | 0.0367 |
| FIXa variant R318Y/R338E/R403E (mature FIX numbering) (protein) chain 1: YNSGKLEEFVQGNLERECMEEKCSFEEAREVFENTERTTEFWKQYVDGDQCESNPCLNGGSCKDDINSYECWCPFGFEGKNCELDVTCNIKNGRCEQFCKNSADNKVVCSCTEGYRLAENQKSCEPAVPFPCGRVSVSQTSKLTR chain 2: VVGGEDAKPGQFPWQVVLNGKVDAFCGGSIVNEKWIVTAAHCVETGVKITVVAGEHNIEETEHTEQKRNVIRIIPHHNYNAAINKYNHDIALLELDEPLVLNSYVTPICIADKEYTNIFLKFGSGYVSGWGRVFHKGYSALVLQYLRVPLVDRATCLESTKFTIYNNMFCAGFHEGGRDSCQGDSGGPHVTEVEGTSFLTGIISWGEECAMKGKYGIYTKVSEYVNWIKEKTKLT |  |  | 0.0597 |
| FIXa-K247N/N249S/R338E/T343R/E410N (protein) chain 1: YNSGKLEEFVQGNLERECMEEKCSFEEAREVFENTERTTEFWKQYVDGDQCESNPCLNGGSCKDDINSYECWCPFGFEGKNCELDVTCNIKNGRCEQFCKNSADNKVVCSCTEGYRLAENQKSCEPAVPFPCGRVSVSQTSKLTR chain 2: VVGGEDAKPGQFPWQVVLNGKVDAFCGGSIVNEKWIVTAAHCVETGVKITVVAGEHNIEETEHTEQNRSVIRIIPHHNYNAAINKYNHDIALLELDEPLVLNSYVTPICIADKEYTNIFLKFGSGYVSGWGRVFHKGRSALVLQYLRVPLVDRATCLESTKFRIYNNMFCAGFHEGGRDSCQGDSGGPHVTEVEGTSFLTGIISWGEECAMKGKYGIYTKVSRYVNWIKNKTKLT | 7.9 | 3.1e+08 |  |
| FIXa-Y155F/K247N/N249S/R338E/T343R/R403E (protein) chain 1: YNSGKLEEFVQGNLERECMEEKCSFEEAREVFENTERTTEFWKQYVDGDQCESNPCLNGGSCKDDINSYECWCPFGFEGKNCELDVTCNIKNGRCEQFCKNSADNKVVCSCTEGYRLAENQKSCEPAVPFPCGRVSVSQTSKLTR chain 2: VVGGEDAKPGQFPWQVVLNGKVDAFCGGSIVNEKWIVTAAHCVETGVKITVVAGEHNIEETEHTEQNRSVIRIIPHHNYNAAINKYNHDIALLELDEPLVLNSYVTPICIADKEYTNIFLKFGSGYVSGWGRVFHKGRSALVLQYLRVPLVDRATCLESTKFRIYNNMFCAGFHEGGRDSCQGDSGGPHVTEVEGTSFLTGIISWGEECAMKGKYGIYTKVSEYVNWIKEKTKLT | 14.6 | 5.9e+08 |  |
